The values that follow come from publication PMC3795262.

This experiment has as its target Full-length recombinant human TSG-6 (secreted product of tumor necrosis factor-stimulated gene-6) (human) (UniProt P98066). In words: not stated; preliminary results, data not shown.

What is called Kd is a measure of binding affinity in units of concentration.

Chain of UniProt P98066 (P98066 18-277): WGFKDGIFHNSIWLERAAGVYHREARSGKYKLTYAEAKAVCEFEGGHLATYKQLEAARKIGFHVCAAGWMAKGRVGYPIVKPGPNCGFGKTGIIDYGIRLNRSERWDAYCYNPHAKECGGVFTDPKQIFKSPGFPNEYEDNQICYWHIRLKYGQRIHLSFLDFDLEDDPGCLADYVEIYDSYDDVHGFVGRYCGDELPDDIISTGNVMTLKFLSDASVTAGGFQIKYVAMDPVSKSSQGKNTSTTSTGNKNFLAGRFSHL

For “Inter-α-inhibitor (from UniProt P19827 35-672; P19823 55-702) (complex)”, the Kd came to 10 nM.
